This test addresses T1, hTβRII (G4S)2-hFc (human).
T1 construct: 70 lacks the C-terminal lysine; Expressed in CHO cells
In words: SPR (Biacore), in vitro.

T1 sequence (chain, as listed by the source limits assumed): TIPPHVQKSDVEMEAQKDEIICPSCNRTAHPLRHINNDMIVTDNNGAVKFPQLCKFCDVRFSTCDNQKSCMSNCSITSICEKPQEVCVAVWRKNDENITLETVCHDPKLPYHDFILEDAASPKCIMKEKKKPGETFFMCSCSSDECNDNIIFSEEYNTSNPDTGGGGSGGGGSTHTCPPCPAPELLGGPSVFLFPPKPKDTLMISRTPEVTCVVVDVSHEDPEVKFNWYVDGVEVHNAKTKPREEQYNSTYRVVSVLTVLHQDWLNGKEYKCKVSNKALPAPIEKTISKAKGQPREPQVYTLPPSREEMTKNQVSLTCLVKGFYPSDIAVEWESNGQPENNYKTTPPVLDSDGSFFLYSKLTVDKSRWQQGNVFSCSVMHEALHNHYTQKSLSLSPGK

B1: Human TGFβ2 (ligand, UniProt P61812 303-414, looked up)
chain: ALDAAYCFRNVQDNCCLRPLYIDFKRDLGWKWIHEPKGYNANFCAGACPYLWSSDTQHSRVLSLYNTINPEASASPCCVSQDLEPLTILYYIGKTPKIEQLSNMIVKSCKCS
Consider B1, for which the binding result is “binds”.

Source of the values: patent US20230398182A1 (ACCELERON PHARMA, published 2023).
